These results are taken from patent US20220281980A1 (Bristol-Myers Squibb, published 2022).

The target in assay [1] is T1, human MICA/B endogenously expressed on SW480 cells (human, UniProt Q29983 24-383).
T1 construct: whole, on cells
T1 sequence (looked up): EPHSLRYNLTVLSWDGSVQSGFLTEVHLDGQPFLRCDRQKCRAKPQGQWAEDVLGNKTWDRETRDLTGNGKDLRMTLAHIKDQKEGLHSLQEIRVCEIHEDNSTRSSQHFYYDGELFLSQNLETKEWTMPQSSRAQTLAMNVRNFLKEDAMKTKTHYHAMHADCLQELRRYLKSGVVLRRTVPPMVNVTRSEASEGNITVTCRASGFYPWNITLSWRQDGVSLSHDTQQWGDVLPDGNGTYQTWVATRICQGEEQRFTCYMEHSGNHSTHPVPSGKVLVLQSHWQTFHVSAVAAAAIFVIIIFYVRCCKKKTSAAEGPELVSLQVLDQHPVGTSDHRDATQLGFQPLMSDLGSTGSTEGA
In words: Scatchard analysis, 125I-MICA.36 on SW480 cells; SW480 cells (FIG. 7G). As to the method:
(§1) Nonspecific binding was determined by binding in the presence of a titration of a 100 fold molar excess of unlabeled antibody and was subtracted from total counts per minute (CPM) to calculate specific binding. A linear standard curve of ¹²⁵I-MICA.36 concentration versus CPM was used to extrapolate specific activity, maximal nM bound ¹²⁵I-MICA.36 and thereby calculate receptor number per cell.
(§2) Specific activity of the iodinated MICA.36 was determined by plotting antibody titrations against the associated CPMs in a standard curve (FIG. 7A). The specific activity was calculated to be 164,214 CPM in 1 nM of ¹²⁵I-MICA.36. The number of receptors per cell was calculated by the following equation: (Bmax)×(Avogadro's number)×(Assay Volume)/# of cells per well.

The target in assay [2] is T2, human MICA/B endogenously expressed on 786-O cells (MICA allele *008) (human, UniProt Q29983 24-331).
T2 construct: it speaks of MICA/B, so MICB may be present as well; also called 786-0
T2 chain: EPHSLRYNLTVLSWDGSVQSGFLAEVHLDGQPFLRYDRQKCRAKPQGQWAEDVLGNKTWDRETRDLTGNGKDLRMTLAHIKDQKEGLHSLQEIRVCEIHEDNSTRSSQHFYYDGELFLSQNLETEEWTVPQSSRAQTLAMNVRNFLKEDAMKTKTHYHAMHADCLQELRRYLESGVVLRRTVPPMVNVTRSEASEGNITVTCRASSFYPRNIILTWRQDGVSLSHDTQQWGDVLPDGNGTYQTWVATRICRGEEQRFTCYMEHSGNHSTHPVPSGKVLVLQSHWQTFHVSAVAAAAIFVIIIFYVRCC
In words: saturation binding of 125I-labelled antibody on 786-O cells, 50,000 cells/well; fit of total binding, non-specific binding not subtracted. As to the method: as §1

Assay [3] deals with T3, cynomolgus monkey MICA/B clone #6 expressed on CHO cells (cynomolgus monkey).
T3 construct: whole, on cells; also called cyno#6; CHO-cyno MICA clone #6
In words: saturation binding of 125I-labelled antibody on CHO-MICA Cyno #6 cells, 25K per well; fit of total binding, non-specific binding not subtracted. As to the method: as §1, §2

The target of assay [4] is T3, cynomolgus monkey MICA/B clone #6 …. In words: saturation binding of 125I-labelled antibody on CHO-MICA Cyno #6 cells, 25K per well (Scatchard analysis); unit from the x axis 'nM Radioligand'. As to the method: as §1, §2
The target of assay [5] is T4, human MICB expressed on transduced cells (human, UniProt Q29980 23-382).
T4 construct: also called MICB*005
T4 chain: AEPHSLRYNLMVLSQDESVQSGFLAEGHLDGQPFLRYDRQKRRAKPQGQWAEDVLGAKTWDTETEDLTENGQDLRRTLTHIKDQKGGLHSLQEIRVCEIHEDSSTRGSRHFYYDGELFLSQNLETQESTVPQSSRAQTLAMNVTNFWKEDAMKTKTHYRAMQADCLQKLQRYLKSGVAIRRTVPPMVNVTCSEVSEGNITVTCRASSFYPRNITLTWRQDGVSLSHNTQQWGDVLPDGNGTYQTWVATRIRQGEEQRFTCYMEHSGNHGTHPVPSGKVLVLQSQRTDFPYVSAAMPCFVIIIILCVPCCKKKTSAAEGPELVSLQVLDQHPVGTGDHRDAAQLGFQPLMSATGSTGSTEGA
Kind of assay: saturation binding of 125I-labelled antibody on CHO-MICB cells, 12500 per well (Scatchard analysis); x axis 'Ab' carries no unit, nM taken from paragraph 587. As to the method: as §1, §2

In assay [6] the target is T4, human MICB expressed on transduced cells. In words: saturation binding of 125I-labelled antibody on CHO-MICB cells, 12500 per well; fit of total binding, non-specific binding not subtracted; x axis without unit. As to the method:
as §1, §2

Assay [7] concerns the target T5, cynomolgus monkey MICA/B clone #4 expressed on CHO cells (cynomolgus monkey).
T5 construct: whole, on cells; also called cyno#4; CHO-cyno MICA clone #4
In words: saturation binding of 125I-labelled antibody on CHO-MICA Cyno #4 cells, 25K per well (Scatchard analysis); unit from the x axis 'nM Radioligand'; curve not saturated at 20 nM. As to the method: as §1, §2

Assay [8] addresses T5, cynomolgus monkey MICA/B clone #4 …. Kind of assay: flow cytometry (GMFI, FACSCalibur), CHO cells with cyno MICA #4; unit from the x axis; curve from about 13000 at 0.1 ug/ml to about 94500 GMFI at 40 ug/ml.

B1: MICA.36 (antibody, V domains shown)
VH: QVQLVESGGGVVQPGRSLRLSCAASGFTFSNYAMHWVRQAPGEGLEWVALIWYDGSNKFYGDSVKGRFTISRDNSKNTLYLQMNSLSAEDTAVYYCAREGSGHYWGQGTLVTVSS
VL: AIQLTQSPSSLSASVGDRVTITCRASQGISSALAWYQQKPGKVPKSLIYDASSLESGVPSRFSGSGSGTDFTLTISSLQPEDFATYYCQQFNSYPITFGQGTRLEIK
notes: it says that the name implies no specific constant region; Radioiodinated in the Scatchard assay; also called MICA.36 antibody
As for B1, the Kd – broadly, the concentration at which binding is half-saturated – in assay [1] is ~0.4 nM; in assay [4], 5.12 nM; in assay [5] it was 1.36 nM; in assay [7], 11 nM. The “Kd of the total-binding curve” value came out at 0.6 nM in assay [2], 8.27 nM in assay [3] and 2.8 nM in assay [6].

B2: 19G6 (antibody, V domains shown)
VH: B1 VH
VL: B1 VL
notes: Hybridoma antibody from human IgG transgenic mice, parent of MICA.36; also called 19G6 mAb; hybridoma 19G6
As to B2, in assay [8], the response was half-maximal at 0.161 µg/mL (EC50).
